Numbering of substitutions follows the chain as printed. Names may count otherwise.
Substrate: Nc1ncnc2c1ncn2[C@@H]1O[C@H](COP(=O)(O)OP(=O)(O)OP(=O)(O)O)[C@@H](O)[C@H]1O
Assay: purified protein, by the assay type

B1: ALK (V1058-P1620) G1202R (Homo sapiens; G1202R) (protein)
chain: VYRRKHQELQAMQMELQSPEYKLSKLRTSTIMTDYNPNYCFAGKTSSISDLKEVPRKNITLIRGLGHGAFGEVYEGQVSGMPNDPSPLQVAVKTLPEVCSEQDELDFLMEALIISKFNHQNIVRCIGVSLQSLPRFILLELMAGRDLKSFLRETRPRPSQPSSLAMLDLLHVARDIACGCQYLEENHFIHRDIAARNCLLTCPGPGRVAKIGDFGMARDIYRASYYRKGGCAMLPVKWMPPEAFMEGIFTSKTDTWSFGVLLWEIFSLGYMPYPSKSNQEVLEFVTSGGRMDPPKNCPGPVYRIMTQCWQHQPEDRPNFAIILERIEYCTQDPDVINTALPIEYGPLVEEEEKVPVRPKDPEGVPPLLVSQQAKREEERSPAAPPPLPTTSSGKAAKKPTAAEISVRVPRGPAVEGGHVNMAFSQSNPPSELHKVHGSRNKPTSLWNPTYGSWFTEKPTKKNNPIAKKEPHDRGNLGLEGSCTVPPNVATGRLPGASLLLEPSSLTANMKEVPLFRLRHFPCGNVNYGYQQQGLPLEAATAPGAGHYEDTILKSKNSMNQPGP
B1 gave a Km (other: ALK G1202R) of 23 µM.

B2: ALK (V1058-P1620) S1206Y (Homo sapiens; S1206Y) (protein)
chain: B1 chain with R145G, S149Y
For B2, the Km (other: ALK S1206Y) was 20 µM.

Reference: article PMC3385512
